Legend:
[1] = substrate: O=P(O)(O)O[C@H]1O[C@H](CO)[C@@H](O)[C@H](O)[C@@H]1O; assay: purified protein; format: biochemical, Homo sapiens; settings: pH 7.5, 32°C
[2] = substrate: O=P(O)(O)O[C@H]1O[C@H](CO)[C@@H](O)[C@H](O)[C@H]1O; assay: purified protein; format: biochemical, Homo sapiens; settings: 27 μM Glc-1,6-P2, MgCl2 5 mM, pH 7.5, 32°C

| Protein | Km ([1]; 10 μM Man-1,6-P2, MgCl2 5 mM) [µM] | Km [2] [µM] | Km ([1]; 3 μM Man-1,6-P2, MgCl2 5 mM) [µM] |
| --- | --- | --- | --- |
| PMM1 (phosphomannomutase1) (Homo sapiens; E219K/M186Q/N218D) (protein, recombinant, E. coli BL21(DE3), purified as in earlier work (DEAE, butyl Sepharose); dimer; no tag mentioned) AVTAQAARRKERVLCLFDVDGTLTPARQKIDPEVAAFLQKLRSRVQIGVVGGSDYCKIAEQLGDGDEVIEKFDYVFAENGTVQYKHGRLLSKQTIQNHLGEELLQDLINFCLSYMALLRLPKKRGTFIEFRNGMLNISPIGRSCTLEERIEFSELDKKEKIREKFVEALKTEFAGKGLRFSRGGQISFDVFPEGWDKRYCLDSLDQDSFDTIHFFGDKTSPGGNDFEIFADPRTVGHSVVSPQDTVQRCREIFFPETAHEA | 1.6 ± 0.4 | 3.5 ± 1.3 | – |
| PMM1 (phosphomannomutase1) (Homo sapiens) (protein, recombinant, E. coli BL21(DE3), purified as in earlier work (DEAE, butyl Sepharose); dimer; no tag mentioned) AVTAQAARRKERVLCLFDVDGTLTPARQKIDPEVAAFLQKLRSRVQIGVVGGSDYCKIAEQLGDGDEVIEKFDYVFAENGTVQYKHGRLLSKQTIQNHLGEELLQDLINFCLSYMALLRLPKKRGTFIEFRNGMLNISPIGRSCTLEERIEFSELDKKEKIREKFVEALKTEFAGKGLRFSRGGMISFDVFPEGWDKRYCLDSLDQDSFDTIHFFGNETSPGGNDFEIFADPRTVGHSVVSPQDTVQRCREIFFPETAHEA | 6.5 ± 1.3 | 7.3 ± 1.7 | – |
| PMM2 (phosphomannomutase2) (Homo sapiens) (protein, recombinant, E. coli BL21(DE3), purified as in earlier work; no tag mentioned) AAPGPALCLFDVDGTLTAPRQKITKEMDDFLQKLRQKIKIGVVGGSDFEKVQEQLGNDVVEKYDYVFPENGLVAYKDGKLLCRQNIQSHLGEALIQDLINYCLSYIAKIKLPKKRGTFIEFRNGMLNVSPIGRSCSQEERIEFYELDKKENIRQKFVADLRKEFAGKGLTFSIGGQISFDVFPDGWDKRYCLRHVENDGYKTIYFFGDKTMPGGNDHEIFTDPRTMGYSVTAPEDTRRICELLFS | – | – | 23.7 ± 4.5 |

Reference: paper PMC5736207
